Test results as given in the supplement of paper PMC9112550, “Optimization of the antimicrobial peptide Bac7 by deep mutational scanning” (BMC Biology, 2022).

Each sequence was assayed on Escherichia coli TOP10 (assay: shrunken log2 fold change of peptide-encoding DNA abundance (4.5 h post-induction vs induction); higher = less antimicrobial activity (less host growth inhibition)). Conditions: time post-induction: 4.5 h; library: site-saturation at positions 5, 18, 19, 20.
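Also: peptides expressed intracellularly from a pBAD plasmid library in pooled LB shake-flask culture, induced with 0.3% L-arabinose, DNA abundance read by NGS, three biological replicates, DESeq2 with apeglm shrinkage.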

RRIRARPPRLPRPRPRPSWEPRP was tested. Which “shrunken log2 fold change” value did it give?
Its value is 0.162.

With RRIRARPPRLPRPRPRPSWHPRP as the sequence, how does the “shrunken log2 fold change” value read?
The value was 0.0482.

Which “shrunken log2 fold change” value does the source give for RRIRARPPRLPRPRPRPSYFPRP here?
The value was -0.555.

Which “shrunken log2 fold change” value does the source give for RRIRARPPRLPRPRPRPSYMPRP here?
The value was -0.761.

How did the “shrunken log2 fold change” value turn out when RRIRARPPRLPRPRPRPSYTPRP was run?
The value was 1.56.

How did the “shrunken log2 fold change” value turn out when RRIRARPPRLPRPRPRPSYWPRP was run?
Its value is -0.184.

For RRIRARPPRLPRPRPRPTCPPRP, which “shrunken log2 fold change” value is on record?
Its value is 0.444.

With RRIRARPPRLPRPRPRPTCYPRP as the sequence, how does the “shrunken log2 fold change” value read?
The value was 0.128.

RRIRARPPRLPRPRPRPTEGPRP was tested. Which “shrunken log2 fold change” value did it give?
Its value is 0.941.

For RRIRARPPRLPRPRPRPTEWPRP, which “shrunken log2 fold change” value is on record?
Its value is 0.483.

RRIRARPPRLPRPRPRPTFHPRP was tested. Which “shrunken log2 fold change” value did it give?
Its value is 0.177.

With RRIRARPPRLPRPRPRPTFMPRP as the sequence, how does the “shrunken log2 fold change” value read?
The value was 0.106.

With RRIRARPPRLPRPRPRPTFPPRP as the sequence, how does the “shrunken log2 fold change” value read?
Its value is 0.308.

How did the “shrunken log2 fold change” value turn out when RRIRARPPRLPRPRPRPTGFPRP was run?
The value was 0.105.

RRIRARPPRLPRPRPRPTGVPRP was tested. Which “shrunken log2 fold change” value did it give?
Its value is 0.439.

With RRIRARPPRLPRPRPRPTHFPRP as the sequence, how does the “shrunken log2 fold change” value read?
The value was 0.809.

How did the “shrunken log2 fold change” value turn out when RRIRARPPRLPRPRPRPTHHPRP was run?
The value was 0.468.

With RRIRARPPRLPRPRPRPTIEPRP as the sequence, how does the “shrunken log2 fold change” value read?
Its value is 0.225.

For RRIRARPPRLPRPRPRPTIKPRP, which “shrunken log2 fold change” value is on record?
Its value is 0.0966.

Which “shrunken log2 fold change” value does the source give for RRIRARPPRLPRPRPRPTIQPRP here?
The value was 0.0396.

For RRIRARPPRLPRPRPRPTLQPRP, which “shrunken log2 fold change” value is on record?
The value was 0.694.

For RRIRARPPRLPRPRPRPTLWPRP, which “shrunken log2 fold change” value is on record?
Its value is 1.05.

Which “shrunken log2 fold change” value does the source give for RRIRARPPRLPRPRPRPTMHPRP here?
Its value is 0.354.

For RRIRARPPRLPRPRPRPTMNPRP, which “shrunken log2 fold change” value is on record?
The value was 0.0878.

With RRIRARPPRLPRPRPRPTNRPRP as the sequence, how does the “shrunken log2 fold change” value read?
Its value is 0.05.

How did the “shrunken log2 fold change” value turn out when RRIRARPPRLPRPRPRPTPCPRP was run?
Its value is 0.323.

Which “shrunken log2 fold change” value does the source give for RRIRARPPRLPRPRPRPTSFPRP here?
The value was 0.237.

RRIRARPPRLPRPRPRPTWCPRP was tested. Which “shrunken log2 fold change” value did it give?
The value was 0.325.

Which “shrunken log2 fold change” value does the source give for RRIRARPPRLPRPRPRPTYWPRP here?
The value was 0.144.

Which “shrunken log2 fold change” value does the source give for RRIRARPPRLPRPRPRPVCDPRP here?
The value was 0.992.

Which “shrunken log2 fold change” value does the source give for RRIRARPPRLPRPRPRPVCFPRP here?
Its value is 0.489.

How did the “shrunken log2 fold change” value turn out when RRIRARPPRLPRPRPRPVCIPRP was run?
The value was 0.11.

Which “shrunken log2 fold change” value does the source give for RRIRARPPRLPRPRPRPVCYPRP here?
Its value is -0.128.

Which “shrunken log2 fold change” value does the source give for RRIRARPPRLPRPRPRPVFGPRP here?
The value was 0.353.

With RRIRARPPRLPRPRPRPVFHPRP as the sequence, how does the “shrunken log2 fold change” value read?
Its value is -0.253.

Which “shrunken log2 fold change” value does the source give for RRIRARPPRLPRPRPRPVFQPRP here?
Its value is 0.000109.

For RRIRARPPRLPRPRPRPVFWPRP, which “shrunken log2 fold change” value is on record?
Its value is 0.699.

With RRIRARPPRLPRPRPRPVGWPRP as the sequence, how does the “shrunken log2 fold change” value read?
The value was 1.02.

Which “shrunken log2 fold change” value does the source give for RRIRARPPRLPRPRPRPVGYPRP here?
The value was 0.265.

Which “shrunken log2 fold change” value does the source give for RRIRARPPRLPRPRPRPVHIPRP here?
Its value is -0.177.

How did the “shrunken log2 fold change” value turn out when RRIRARPPRLPRPRPRPVIHPRP was run?
Its value is -0.307.

For RRIRARPPRLPRPRPRPVIPPRP, which “shrunken log2 fold change” value is on record?
The value was -0.296.

For RRIRARPPRLPRPRPRPVKIPRP, which “shrunken log2 fold change” value is on record?
The value was 0.0527.

RRIRARPPRLPRPRPRPVLPPRP was tested. Which “shrunken log2 fold change” value did it give?
The value was 0.286.

With RRIRARPPRLPRPRPRPVNGPRP as the sequence, how does the “shrunken log2 fold change” value read?
The value was -0.133.

Which “shrunken log2 fold change” value does the source give for RRIRARPPRLPRPRPRPVRAPRP here?
Its value is 0.924.

How did the “shrunken log2 fold change” value turn out when RRIRARPPRLPRPRPRPVRHPRP was run?
The value was 0.399.

Which “shrunken log2 fold change” value does the source give for RRIRARPPRLPRPRPRPVSDPRP here?
The value was 0.576.

With RRIRARPPRLPRPRPRPVSFPRP as the sequence, how does the “shrunken log2 fold change” value read?
Its value is 0.368.

RRIRARPPRLPRPRPRPVVFPRP was tested. Which “shrunken log2 fold change” value did it give?
The value was 0.213.

Which “shrunken log2 fold change” value does the source give for RRIRARPPRLPRPRPRPVVHPRP here?
Its value is 0.297.

For RRIRARPPRLPRPRPRPVVRPRP, which “shrunken log2 fold change” value is on record?
The value was 0.481.

For RRIRARPPRLPRPRPRPVWCPRP, which “shrunken log2 fold change” value is on record?
Its value is 0.293.

How did the “shrunken log2 fold change” value turn out when RRIRARPPRLPRPRPRPVYCPRP was run?
Its value is -0.175.

RRIRARPPRLPRPRPRPVYHPRP was tested. Which “shrunken log2 fold change” value did it give?
Its value is -0.321.

For RRIRARPPRLPRPRPRPVYIPRP, which “shrunken log2 fold change” value is on record?
The value was -0.355.

For RRIRARPPRLPRPRPRPVYYPRP, which “shrunken log2 fold change” value is on record?
Its value is -0.518.

With RRIRARPPRLPRPRPRPWCGPRP as the sequence, how does the “shrunken log2 fold change” value read?
Its value is 0.0572.

Which “shrunken log2 fold change” value does the source give for RRIRARPPRLPRPRPRPWEDPRP here?
Its value is -0.015.

How did the “shrunken log2 fold change” value turn out when RRIRARPPRLPRPRPRPWEVPRP was run?
Its value is 0.205.

Which “shrunken log2 fold change” value does the source give for RRIRARPPRLPRPRPRPWGYPRP here?
The value was -0.317.

With RRIRARPPRLPRPRPRPWHIPRP as the sequence, how does the “shrunken log2 fold change” value read?
The value was 0.0256.

Which “shrunken log2 fold change” value does the source give for RRIRARPPRLPRPRPRPWIGPRP here?
Its value is 0.15.

How did the “shrunken log2 fold change” value turn out when RRIRARPPRLPRPRPRPWISPRP was run?
Its value is -0.333.

How did the “shrunken log2 fold change” value turn out when RRIRARPPRLPRPRPRPWKHPRP was run?
The value was -0.0402.

RRIRARPPRLPRPRPRPWKQPRP was tested. Which “shrunken log2 fold change” value did it give?
The value was 0.00355.

How did the “shrunken log2 fold change” value turn out when RRIRARPPRLPRPRPRPWMFPRP was run?
Its value is -0.0244.

With RRIRARPPRLPRPRPRPWNKPRP as the sequence, how does the “shrunken log2 fold change” value read?
Its value is -0.0945.

Which “shrunken log2 fold change” value does the source give for RRIRARPPRLPRPRPRPWNQPRP here?
Its value is -0.247.

With RRIRARPPRLPRPRPRPWNSPRP as the sequence, how does the “shrunken log2 fold change” value read?
The value was -0.222.

With RRIRARPPRLPRPRPRPWPNPRP as the sequence, how does the “shrunken log2 fold change” value read?
The value was 0.111.

With RRIRARPPRLPRPRPRPWVDPRP as the sequence, how does the “shrunken log2 fold change” value read?
The value was -0.0331.

RRIRARPPRLPRPRPRPWVYPRP was tested. Which “shrunken log2 fold change” value did it give?
Its value is -0.0996.

RRIRARPPRLPRPRPRPWYEPRP was tested. Which “shrunken log2 fold change” value did it give?
Its value is -0.0297.

With RRIRARPPRLPRPRPRPWYIPRP as the sequence, how does the “shrunken log2 fold change” value read?
The value was -0.257.
